Data as given in publication PMC2714072.

Experiments:
[1] = biological target: SYT/S (short isoform of SYT/SS18), monkey (Cos-1) (monkey (endogenous in Cos-1)); experiment: co-IP; endogenous proteins; post-nuclear (cytosolic) lysates of U2OS or Cos-1 cells in MLB buffer (25 mM HEPES pH 7.5, 150 mM NaCl, 1% Igepal CA-630, 10 mM MgCl2, 1 mM EDTA, 2% glycerol, 1 mM ATP); 1 µg pSYT or SYT/L-specific antibody overnight, Protein G PLUS-Agarose, 3 washes with RIPA buffer; bands stained with SYPRO Ruby, excised and identified by nano LC/MS/MS; controls: IgG and lysates of panSYT229 RNAi cells; Cos-1 lysates also pre-incubated with 100 µM GTP-γS or 1 mM GDP for 30 min at 30°C
[2] = biological target: SYT/L (long isoform of SYT/SS18), monkey (Cos-1) (monkey (endogenous in Cos-1)); experiment: as above

“actin, monkey (Cos-1) (from UniProt Q76N69 1-375) (natural protein)” was tested, and the difference in co-immunoprecipitated level between lysates with GTP-γS and with GDP [1] was under 5% and the difference in co-immunoprecipitated level between lysates with GTP-γS and with GDP [2] was under 5%.
